2 molecules from paper PMC4778762, “Acetylation of Lysine 201 Inhibits the DNA-Binding Ability of PhoP to Regulate Salmonella Virulence” can be followed below.

Substitutions are numbered along the chain they refer to.

Series [1] addresses T1, PhoP WT (Salmonella enterica serovar Typhimurium) (UniProt D0ZV90).
T1 sequence: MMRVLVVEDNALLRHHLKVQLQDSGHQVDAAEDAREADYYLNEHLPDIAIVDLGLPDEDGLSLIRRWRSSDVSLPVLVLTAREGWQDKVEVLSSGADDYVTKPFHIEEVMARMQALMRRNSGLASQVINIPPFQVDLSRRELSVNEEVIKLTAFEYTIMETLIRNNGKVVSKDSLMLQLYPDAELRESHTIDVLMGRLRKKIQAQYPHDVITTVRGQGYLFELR
Briefly: EMSA. As to conditions: EMSA: 25 mM Tris-HCl pH 8.0, 50 mM KCl, 0.5 mM EDTA, 10% glycerol, 37 C 30 min, gel at 4 C; SPR: Biacore 2000, streptavidin chip, buffer not given. In general terms: Mobility shift assays separate free from complexed probe on a gel.

Series [2] addresses T2, PhoP K201R K201R (Salmonella enterica serovar Typhimurium) (UniProt D0ZV90).
T2 sequence: T1 sequence with K201R
Briefly: EMSA. As to conditions: EMSA: 25 mM Tris-HCl pH 8.0, 50 mM KCl, 0.5 mM EDTA, 10% glycerol, 37 C 30 min, gel at 4 C; SPR: Biacore 2000, streptavidin chip, buffer not given.

The target in series [3] is T3, PhoP K201Q K201Q (Salmonella enterica serovar Typhimurium) (UniProt D0ZV90).
T3 sequence: T1 sequence with K201Q
Briefly: EMSA. As to conditions: EMSA: 25 mM Tris-HCl pH 8.0, 50 mM KCl, 0.5 mM EDTA, 10% glycerol, 37 C 30 min, gel at 4 C; SPR: Biacore 2000, streptavidin chip, buffer not given.

The target of series [4] is T4, PhoP K201A K201A (Salmonella enterica serovar Typhimurium) (UniProt D0ZV90).
T4 sequence: T1 sequence with K201A
Briefly: EMSA. As to conditions: EMSA: 25 mM Tris-HCl pH 8.0, 50 mM KCl, 0.5 mM EDTA, 10% glycerol, 37 C 30 min, gel at 4 C; SPR: Biacore 2000, streptavidin chip, buffer not given.

A further series deals with PhoP WT (Salmonella enterica serovar Typhimurium, UniProt D0ZV90 1-224). Kind of series: SPR; 0.3-1 uM PhoP; response 2.3-fold (0.6 uM) and 4.0-fold (1 uM) of that at 0.3 uM; EMSA: 25 mM Tris-HCl pH 8.0, 50 mM KCl, 0.5 mM EDTA, 10% glycerol, 37 C 30 min, gel at 4 C; SPR: Biacore 2000, streptavidin chip, buffer not given. The settings on record: protein: recombinant; tags: C-terminal 6xHis; chain copies: 2; label: 5'-biotin on strand 1; blunt. (In general: In SPR one partner is held on a chip, and binding of the other changes the refractive index at the surface.)

Regarding “ATCCTCTACAACCAGTACGCGCATCATCTCTTCTCCCTTGTGTTAACAATAAGAACAGTCTAGCGTTGATTATGGTGCTTTGGGGATAAACAGTTAATAAACCAGACAAATAGTCACCCTCTTTCTGAAGAAAAGAGGGTGAGGCAGGCATTATTTAAGTTCGTCGACCAGAGTCACAGCGCGA (double strand) [phoP promoter 184 bp]”, the binding result was “binds” in series [1], “binds” in series [2], “binds more weakly” in series [3] and “binds more weakly” in series [4].

B1: PhoP box of phoP promoter (dsDNA)
DNA 1: GGGGTCTGGTTTATTAACTGTTTATCCGGGG
DNA 2: CCCCGGATAAACAGTTAATAAACCAGACCCC
For B1, in the series with PhoP WT, the binding result is “binds”.
